Results: patent US20130150297A1 (KAI PHARMACEUTICALS, published 2013)
Square brackets hold non-standard residues; d marks the D form. Ends that are not written are not given here.

T1: human calcium-sensing receptor (CaSR) (human, UniProt P41180 20-1078)
T1 sequence (looked up): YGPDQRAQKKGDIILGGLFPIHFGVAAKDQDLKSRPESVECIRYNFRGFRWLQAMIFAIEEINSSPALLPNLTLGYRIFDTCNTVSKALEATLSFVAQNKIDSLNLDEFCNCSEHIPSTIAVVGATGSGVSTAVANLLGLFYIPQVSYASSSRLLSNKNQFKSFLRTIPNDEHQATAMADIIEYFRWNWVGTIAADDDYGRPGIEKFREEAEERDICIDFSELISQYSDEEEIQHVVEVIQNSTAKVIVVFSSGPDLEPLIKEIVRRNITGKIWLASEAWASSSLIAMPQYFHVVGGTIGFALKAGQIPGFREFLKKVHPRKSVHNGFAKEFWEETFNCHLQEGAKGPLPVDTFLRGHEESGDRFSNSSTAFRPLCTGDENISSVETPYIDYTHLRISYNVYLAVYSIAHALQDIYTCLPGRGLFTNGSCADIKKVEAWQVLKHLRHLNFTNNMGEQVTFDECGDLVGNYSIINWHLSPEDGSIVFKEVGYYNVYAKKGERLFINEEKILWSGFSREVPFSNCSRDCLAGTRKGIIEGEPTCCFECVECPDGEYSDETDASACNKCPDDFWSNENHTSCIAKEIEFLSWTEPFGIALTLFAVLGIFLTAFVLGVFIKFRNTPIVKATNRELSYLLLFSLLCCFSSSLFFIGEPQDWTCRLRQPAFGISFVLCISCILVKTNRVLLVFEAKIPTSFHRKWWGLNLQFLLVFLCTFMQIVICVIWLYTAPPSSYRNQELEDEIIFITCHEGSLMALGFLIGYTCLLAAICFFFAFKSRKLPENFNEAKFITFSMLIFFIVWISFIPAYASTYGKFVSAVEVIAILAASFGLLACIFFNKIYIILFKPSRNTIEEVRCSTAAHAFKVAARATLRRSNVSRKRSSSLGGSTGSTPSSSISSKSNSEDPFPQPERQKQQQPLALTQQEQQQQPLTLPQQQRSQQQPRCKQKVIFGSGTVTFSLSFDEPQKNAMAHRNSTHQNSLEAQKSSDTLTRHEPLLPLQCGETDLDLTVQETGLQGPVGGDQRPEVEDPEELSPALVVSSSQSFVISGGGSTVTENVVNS


Molecular target: T1, human calcium-sensing receptor (CaSR)
Test: cell-based or functional assay

Binder | difference in potency relative to Ac-carrrar-NH2 (SEQ ID NO:26) [fold] | reduction in potency relative to Ac-carrrar-NH2 (SEQ ID NO:26) [fold] | decrease in potency relative to Ac-carrrar-NH2 (SEQ ID NO:26) [fold] | shift in potency in HEK-293 in vitro cell assay (4 versus 5 arginine subunits) [fold]
CXRXRXR (N-terminal acetyl; C-terminal amide; L-Cys 1, D-Ala 2, L-Arg 3, D-Arg 4, L-Arg 5, D-Ala 6, L-Arg 7) [Ac-CaRrRaR-NH2] | < 4 |  |  | 
XGXXXGX (N-terminal acetyl; C-terminal amide; D-amino acids except Gly 2 and Gly 6) [Ac-cGrrrGr-NH2] |  | < 8 |  | 
XAXXXAX (N-terminal acetyl; C-terminal amide; D-amino acids except L-Ala 2 and L-Ala 6) [Ac-cArrrAr-NH2] |  |  | > 600 | 
XXXXX (N-terminal acetyl; C-terminal amide; all residues D-amino acids) [Ac-crrrr-NH2] |  |  |  | > 10

Molecular target: T1, human calcium-sensing receptor (CaSR)
Test: cell-based or functional assay
Remark: another data set of the same source

Binder | EC50 (µM), CaSR in vitro assay (IP1 production) [µM]
XXXXXXX (N-terminal acetyl; C-terminal amide; all residues D-amino acids; oxidized glutathione (GS) attached to the side chain of D-Cys 1) [Ac-c(GS)rrrrrr-NH2] | 7.8
Ac-YGRKKRRQRRR-NH2 [Ac-YGRKKRRQRRR-NH2] | 16
Ac-CARRRAR-NH2 [Ac-CARRRAR-NH2] | 58
CXRXRXR (N-terminal acetyl; C-terminal amide; L-Cys 1, D-Ala 2, L-Arg 3, D-Arg 4, L-Arg 5, D-Ala 6, L-Arg 7) [Ac-CaRrRaR-NH2] | 5.6
XXXXXXXX (N-terminal acetylated beta-alanine; C-terminal amide; Cys and Arg residues are D-amino acids) [Ac-bAla-crrrrrr-NH2] | 1
(SEQ ID NO: 45) (SEQ ID NO: 47) conjugate, structure given only as drawing CHEM-US-00001 (cysteine pairing not given here; also: further groups not given here) peptide 1: CHDAPIGYD peptide 2: CYGRKKRRQRRR | 21
XAXXXAX (N-terminal acetyl; C-terminal amide; D-amino acids except L-Ala 2 and L-Ala 6) [Ac-cArrrAr-NH2] | > 1000
XXXXXXXXXXXX (N-terminal acetyl; C-terminal amide; printed in lower case (D-amino acids; glycine is achiral)) [Ac-cygrkkrrqrrr-NH2] | 2
XXXXXXX (N-terminal acetyl; free C-terminal acid (-OH); all residues D-amino acids) [Ac-carrrar-OH] | 31
XXXXXXX (no N-terminal cap; C-terminal amide; all residues D-amino acids) [crrrrrr-NH2] | 1.1
XXXXXXX (N-terminal acetyl; C-terminal amide; all residues D-amino acids; mercaptopropionic acid (Mpa) attached to the side chain of D-Cys 1) [Ac-c(Mpa)arrrar-NH2] | 21
XXXXXXX (N-terminal acetyl; C-terminal amide; all seven residues D-amino acids; D-Cys 1 linked by a disulfide bond to an L-Cys residue) [Ac-c(C)arrrar-NH2] | 10
Ac-[dC][dA][dA][dA][dR][dR][dR][dR][dR][dR]-NH2 (SMILES CC(=O)N[C@H](CS)C(=O)N[C@H](C)C(=O)N[C@H](C)C(=O)N[C@H](C)C(=O)N[C@H](CCCNC(=N)N)C(=O)N[C@H](CCCNC(=N)N)C(=O)N[C@H](CCCNC(=N)N)C(=O)N[C@H](CCCNC(=N)N)C(=O)N[C@H](CCCNC(=N)N)C(=O)N[C@H](CCCNC(=N)N)C(N)=O) [Ac-caaarrrrrr-NH2] | 4.6
XXXXX (N-terminal acetyl; C-terminal amide; all residues D-amino acids) [Ac-crrrr-NH2] | 16
XXXXXXX (N-terminal acetyl; C-terminal amide; all residues D-amino acids; acetyl attached to the side chain of D-Cys 1) [Ac-c(acetyl)rrrrrr-NH2] | 4.1
XXXXXXX (N-terminal acetyl; C-terminal amide; all residues D-amino acids; L-Cys carrying a 5 kDa polyethylene glycol (PEG5-C) attached to the side chain of D-Cys 1) [Ac-c(PEG5-C)rrrrrr-NH2] | 0.58
XXXXXXX (N-terminal acetyl; C-terminal amide; residue 1 is D-homocysteine (dHcy); residues 2-7 D-Arg) [Ac-dHcy rrrrrr-NH2] | 2
XXXXXXXX (not fully specified; N-terminal acetylated beta-alanine; C-terminal amide; c, a, r residues D-amino acids; D-Cys linked to an L-Cys residue) [Ac-bAla-c(C)arrrar-NH2] | 2.6
XXXXXXX (N-terminal acetyl; C-terminal amide; all residues D-amino acids; benzoyl attached to the side chain of D-Cys 1) [Ac-c(Benzoyl)rrrrrr-NH2] | 3.6
XXXXXXX (not fully specified; N-terminal acetyl; C-terminal amide; all seven residues D-amino acids; N-acetyl-L-Cys attached to the side chain of D-Cys 1) [Ac-c(Ac-C)arrrar-NH2] | 21
Ac-CYGRKKRRQRRR-NH2 [Ac-CYGRKKRRQRRR-NH2] | 4.5
XXXXXXX (no N-terminal cap; C-terminal amide; all seven residues D-amino acids; D-Cys 1 linked to an L-Cys residue) [c(C)arrrar-NH2] | 3.1
XXXXXXX (not fully specified; N-terminal acetyl; C-terminal amide; L-Cys 1 linked by a disulfide bond to an L-Cys residue; residues 2-7 D-amino acids) [Ac-C(C)arrrar-NH2] | 2.5
(SEQ ID NO: 46) (SEQ ID NO: 47) conjugate, structure given only as drawing CHEM-US-00002 (cysteine pairing not given here; also: further groups not given here) peptide 1: CPDYHDAGI peptide 2: CYGRKKRRQRRR | 21
